Measurements from the RNAGym collection of RNA variant scans (doi:10.1073/pnas.2313332121).

B1: TPR t1 (parent)
chain: GACCAAUCUGCCCUCAGAGCUCGAGAACAUCUUCGGAUGCAGAGGAGGCAGGCUUCGGUGGCGCGAUAGCGCCAACGUCCUCAACCUCCAAUGCAUCCCACCACAUGAUGAUGCCUGAAGAGCCUUGGUUUUUUG

Variants of: B1
Experiment: polymerase ribozyme fitness, log enrichment relative to wild type (log ratio); higher = more active; in vitro selection for triplet polymerase activity
In short: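 To select mutant libraries of each subunit of a heterodimeric triplet polymerase ribozyme, built by PCR and transcribed, each was annealed with a biotinylated primer, partner subunit and triplets, then incubated frozen at −7 °C. Extended constructs were gel-excised, captured on streptavidin beads and amplified by RT-PCR, in one round carried out in triplicate. Illumina sequencing of input and output libraries kept genotypes with ≥10 input reads and ≥1 read per output. Fitness is the base-2 logarithm of genotype enrichment relative to wild-type enrichment, from inverse-variance-weighted replicate averages.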

Variant | polymerase ribozyme fitness (log ratio)
GACCAAUCUGCCCUCAGCGCUCGAGAACAUCUUCGGAUGCAGAGGAGGCAGGCUUAGGUGGCGCGAUAGCGCCAACGUCCUCAACCUCCAAUGCAUCCCACCACAUGAUGAUGCCUGAAGAGCCUUGGUUUUUUG [A18C C56A] | -3.08
GACCAAUCUGCCCUCAGCGCUCGAGAACAUCUUCGGAUGCAGGGGAGGCAGGCUUCGGUGGCGCGAUAGCGGCAACGUCCUCAACCUCCAAUGCAUCCCACCACAUGAUGAUGUCUGAAGAGCCUUGGCUUUUUG [A18C A43G C72G C114U U129C] | -4.8
GACCAAUCUGCCCUCAUAGCUCGAGAACAUCUUCGGAUGCAGAGGAGGCAGGCUUCGGUGGCGCGAUAGCGCCAACGUCCACAACCUCCAAUGCAUCCCACCACAUGAUGAUGCCUGAAGAGCCUUGGUUUUUUG [G17U U81A] | -3.22
GACCAAUCUGCCCUCAGCGCUCGAGAACAUCUUCGGAUGCAGAGGAGGCAGGCUUCGGUGGCGCGAUAGCGCCAACGUCCUCAACCUCCAAUGCUUCCCACCACAUGAUGAUGCCUGAAGAGCCUUGGUUUUUUG [A18C A95U] | -3.68
GACCAAUCUGCCCUCAGCGCUCGAGAACAUCUUCGGAUGCAGAGGAGGGAGGCUUCGGUGGCGCGAUAGCGCCAACGUCCUCAACCUCGAAUGCAUCCCACCACAUGAUGAUGCCUGAAGAGUCUUGGUUUUUUG [A18C C49G C89G C123U] | -2.67
GACCAAUCUGCCCUCAGCGCUCGAGAACAUCUUCGGAUGCAGAGGAGGCAGGCUUCGGUGGCGCGAUAGCGCCAACGUCCUCAACCUCCAAUGCAUCCCACCACAUGAUGAUGCCUGAAGCGCCUUGGUUUUUUG [A18C A121C] | -1.86
GACCAAUCUGCCCUCAUAGCUCGAGAACAUCUUCGGAUGCAGAGGAGGCAGGCUUCGGUGGCGCGAUAGCGCCAACGUCCUCAACCUCCAAUGCAUCCCACCACAUGAUGAUGCCUGAAGAGCCUUGGUUUUGUG [G17U U133G] | -2.64
GACCAAUCUGCCCUCAGCGCUCGAGAACAUCUUCGGAUGCAGAGGAGGCAGGCUUCGGUGGCGCGAUAGCGCCAACGUCCUCAACCUCCAAUGCAUCCCACCACAUGAUGUUGCCUGAAGAGCCUUGGUUUUUUG [A18C A111U] | -5.16
GACCAAUCUGCCCUCAGCGCUCGAGAACAUCUUCGGAUGCAGAGGAGGCAGGCUUCGGUGGCGCGAUAGCGCCAACGUCCUCAACCUCCAAUGCAUCCCACCACAUGAUGGUGCCUGAAGAGCCUUGGUUUUUUG [A18C A111G] | 0.883
GACCAAUCUGCCCUCAGCGAUCGAGAACAUCUUCGGAUGCAGAGGAGGCAGGCAUCGGUGGCCCGAUAGCGCCAACGUCCUCAACCUCCAAUGCAACCCACCACAUGAUGAUGCCUGAAGAGCCUUGGUUUUUUG [A18C C20A U54A G63C U96A] | -4.09
GACCAAUCUGCCCUCAUAGCUCGAGAACAUCUUCGGAUGCAGAGGAGGCAGGCUUCGGUGGCGCGAUAGCGCCAACGUCCUCAACCUCCAAUGCAGCACACCACAUGAUGAUUCCUGAAGAGCCUUGGUUUUUUG [G17U U96G C98A G113U] | -6.9
GACCAAUCUGCCCUCAUAGCUCGAGAACAUCUUCGGAUGCAGAGGAGGCAGGCUUCGGUGGCGCGAUAGCGCCAACGUCCUCAACCUCCAAUGCACCCCACCACAUGAUGAUGCCUGAAGAGCCUUGGUUUUUUG [G17U U96C] | -3.71
GACCAAUCUGCCCUCAUAGCUCGAGAACAUCUUCGGAUGCAGAGGAGGCAGGCUUCGGUGGCGCGAUAGCGCCAACGUCCUCAACCUCCAAUGCAUCCCACCACAAGAUGAUGCCUGAAGAGCCUUGGUUUUUUG [G17U U106A] | -2.49
GACCAAUCUGCCCUCAGCGCUCGAGAACAUCUUCGGAUGCAGAGGAGGCAGGCUUCGGUGGCGCGAUAGCGCCUACGUCCUCAACCUCCAAUGCAUCCCACCACAUGAUGAUGCCUGAAGAGCCUUGGUUUUUUG [A18C A74U] | -4.85
GACCAAUCUGCCCUCAGCGCUCGAGAACAUCUUCGGAUGUAGAGGAGGCAGGCUUCGGUGGCGCGAUAGCGCUAACGUCCUCAACCUCCAAUGCAUCCCACCACAUGAUGAUGCCUGAAGAGCCUUGGUUUUUUG [A18C C40U C73U] | -2.05
GACCAAUCUGCCCUCAGCGCUCGAGAACAUCUUCGGAUGCAGAGGUGGCAGGCUUCGGUGGCGCGAUAGCACCAACGUCCUCAGCCUCCAAUGCAUCCCACCACAUGAUGAUGCCUCAAGAGCCUUGGUUUUUUG [A18C A46U G71A A84G G117C] | -7.1
GACCAAUCUGCCCUCAGCGCUCGAGAACAUCUUCGGGUGCAGAGGAGGCAGGCUUCGGUGGGGCGAUAGCGCCAACGUCCUCAACCUCCAAUGCAUCCCACCACAUGAUGAUGCCUGAAGAGCCUUGGUUUUUUG [A18C A37G C62G] | -6.59
GACCAAUCUGCCCUCAGCGCUGGAGAACAUCUUCGGAUGCAGAGGAGGCAGGCUUCGGUGGCACGAUAGCGCCAACGUCCUCAACCUCCAAUGCAUCCCACCACAUGAUGAUGCCUGAAGAGCCUUGGUGUUUUG [A18C C22G G63A U130G] | -5.14
GACCAAUCUGCCCUCAGCGCUCGGGAACAUCUUCGGAUGCAGAGGAGGCAGGCUUCGGUGGCGCGAUAGCGCCAACGUCCUCAACCUCCAAUGCAUCCCACCACAUGAUGAUGCCUGAAGAGCCUUGGUUUUUUG [A18C A24G] | -3.95
GACCAAUCUGCCCUCAGCGCUCGAGAACAUCUUCGGAUGCAGCGGAGGCAGGCUUCGGUGGCGCGAUAGCGCCAACGUCCUCAACCUCCAAUGCAUCCCACCACAUGAUGAUACCUGAAGAGCCUUGGUUUUUUG [A18C A43C G113A] | -2.81
GACCAAUCUGCCCUCAGCGCUCGAGAACAUCUUCGGAUGCAGAGGAGGCAGGCUUAGGUGGCGCGAUAGCGCUAACGUCCUCAACUUCCGAUGCAUCCCACCACAAGCUGAAGCCUGAAGAGCCUUGGUUUUUUG [A18C C56A C73U C86U A90G U106A A108C U112A] | -5.34
